system: Escherichia coli TOP10; assay: shrunken log2 fold change of peptide-encoding DNA abundance (4.5 h post-induction vs induction); higher = less antimicrobial activity (less host growth inhibition); settings: time post-induction: 4.5 h; library: site-saturation at positions 5, 18, 19, 20
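Note: peptides expressed intracellularly from a pBAD plasmid library in pooled LB shake-flask culture, induced with 0.3% L-arabinose, DNA abundance read by NGS, three biological replicates, DESeq2 with apeglm shrinkage.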

| Sequence | shrunken log2 fold change |
| --- | --- |
| RRIRERPPRLPRPRPRPTEKPRP | 0.154 |
| RRIRIRPPRLPRPRPRPMVRPRP | -0.0105 |
| RRIRWRPPRLPRPRPRPTCKPRP | -0.0078 |
| RRIRIRPPRLPRPRPRPLTRPRP | -0.265 |
| RRIRVRPPRLPRPRPRPYQPPRP | -0.509 |
| RRIRTRPPRLPRPRPRPQPQPRP | 0.222 |
| RRIRKRPPRLPRPRPRPMCDPRP | -0.0708 |
| RRIRKRPPRLPRPRPRPRLFPRP | 0.104 |
| RRIRKRPPRLPRPRPRPWSNPRP | 0.202 |
| RRIRERPPRLPRPRPRPFTEPRP | -0.184 |
| RRIRQRPPRLPRPRPRPKKIPRP | -0.0759 |
| RRIRNRPPRLPRPRPRPWRNPRP | 0.0352 |
| RRIRIRPPRLPRPRPRPCLKPRP | -0.16 |
| RRIRDRPPRLPRPRPRPDNGPRP | -0.223 |
| RRIRNRPPRLPRPRPRPFEYPRP | -0.266 |
| RRIRGRPPRLPRPRPRPCEPPRP | 0.241 |
| RRIRERPPRLPRPRPRPQTRPRP | 0.0866 |
| RRIRSRPPRLPRPRPRPGMIPRP | -0.296 |
| RRIRYRPPRLPRPRPRPIKSPRP | -0.616 |
| RRIRMRPPRLPRPRPRPNRMPRP | -0.189 |
| RRIRLRPPRLPRPRPRPNAVPRP | 0.00719 |
| RRIRMRPPRLPRPRPRPPIAPRP | 0.826 |
| RRIRIRPPRLPRPRPRPDSNPRP | -0.168 |
| RRIRRRPPRLPRPRPRPQYDPRP | -0.224 |
| RRIRARPPRLPRPRPRPPFIPRP | -0.103 |

| Sequence | shrunken log2 fold change |
| --- | --- |
| RRIRNRPPRLPRPRPRPNYPPRP | -0.0819 |
| RRIRYRPPRLPRPRPRPVMMPRP | -0.891 |
| RRIRVRPPRLPRPRPRPWGLPRP | -0.159 |
| RRIRARPPRLPRPRPRPIMHPRP | -0.171 |
| RRIRYRPPRLPRPRPRPKNKPRP | -0.444 |
| RRIRERPPRLPRPRPRPAFNPRP | 0.495 |
| RRIRARPPRLPRPRPRPSENPRP | 0.182 |
| RRIRLRPPRLPRPRPRPWAIPRP | -0.0706 |
| RRIRQRPPRLPRPRPRPPSTPRP | 0.179 |
| RRIRDRPPRLPRPRPRPNRYPRP | -0.0973 |
| RRIRFRPPRLPRPRPRPKFEPRP | -0.081 |
| RRIRGRPPRLPRPRPRPREQPRP | 0.857 |
| RRIRDRPPRLPRPRPRPNVNPRP | -0.166 |
| RRIRGRPPRLPRPRPRPVPDPRP | 0.958 |
| RRIRQRPPRLPRPRPRPETPPRP | 0.495 |
| RRIRHRPPRLPRPRPRPRCNPRP | -0.331 |
| RRIRIRPPRLPRPRPRPRALPRP | 0.0988 |
| RRIRHRPPRLPRPRPRPSEWPRP | -0.0167 |
| RRIRARPPRLPRPRPRPLSQPRP | 0.263 |
| RRIRHRPPRLPRPRPRPVPKPRP | 0.0819 |
| RRIRYRPPRLPRPRPRPHFTPRP | -0.817 |
| RRIRYRPPRLPRPRPRPQKNPRP | -0.555 |
| RRIRGRPPRLPRPRPRPKSPPRP | 0.677 |
| RRIRWRPPRLPRPRPRPTYKPRP | -0.467 |
| RRIRFRPPRLPRPRPRPNWAPRP | 0.00252 |

| Sequence | shrunken log2 fold change |
| --- | --- |
| RRIRMRPPRLPRPRPRPSRNPRP | 0.476 |
| RRIRARPPRLPRPRPRPVNTPRP | -0.0807 |
| RRIRNRPPRLPRPRPRPPMYPRP | -0.25 |
| RRIRNRPPRLPRPRPRPTHYPRP | -0.109 |
| RRIRMRPPRLPRPRPRPSNEPRP | 0.287 |
| RRIRQRPPRLPRPRPRPWQHPRP | -0.0358 |
| RRIRNRPPRLPRPRPRPEWWPRP | 0.315 |
| RRIRHRPPRLPRPRPRPDPPPRP | 0.232 |
| RRIRIRPPRLPRPRPRPKPSPRP | 0.128 |
| RRIRNRPPRLPRPRPRPKYAPRP | -0.292 |
| RRIRFRPPRLPRPRPRPECNPRP | 0.0687 |
| RRIRNRPPRLPRPRPRPSCDPRP | -0.179 |
| RRIRVRPPRLPRPRPRPVGYPRP | -0.0725 |
| RRIRGRPPRLPRPRPRPEEKPRP | 1.66 |
| RRIRKRPPRLPRPRPRPPFAPRP | 0.745 |
| RRIRVRPPRLPRPRPRPDYCPRP | -0.207 |
| RRIRIRPPRLPRPRPRPITKPRP | -0.123 |
| RRIRGRPPRLPRPRPRPDTNPRP | 0.199 |
| RRIRLRPPRLPRPRPRPKHIPRP | -0.241 |
| RRIRNRPPRLPRPRPRPPWQPRP | 0.161 |
| RRIRFRPPRLPRPRPRPASMPRP | -0.146 |
| RRIRIRPPRLPRPRPRPYIWPRP | -0.0625 |
| RRIRSRPPRLPRPRPRPLLPPRP | 0.405 |
| RRIRDRPPRLPRPRPRPYNQPRP | -0.135 |
| RRIRERPPRLPRPRPRPPRMPRP | 0.027 |

| Sequence | shrunken log2 fold change |
| --- | --- |
| RRIRHRPPRLPRPRPRPHFCPRP | -0.0593 |
| RRIRGRPPRLPRPRPRPQVLPRP | 0.0422 |
| RRIRWRPPRLPRPRPRPEQVPRP | 0.21 |
| RRIRHRPPRLPRPRPRPFMPPRP | -0.146 |
| RRIRHRPPRLPRPRPRPSDSPRP | -0.0454 |
| RRIRTRPPRLPRPRPRPPGNPRP | -0.0517 |
| RRIRARPPRLPRPRPRPVCQPRP | 0.58 |
| RRIRRRPPRLPRPRPRPHGEPRP | 0.0136 |
| RRIRSRPPRLPRPRPRPFRAPRP | -0.0568 |
| RRIRPRPPRLPRPRPRPNTTPRP | -0.131 |
| RRIRIRPPRLPRPRPRPQYKPRP | -0.848 |
| RRIRWRPPRLPRPRPRPLANPRP | 0.552 |
| RRIRKRPPRLPRPRPRPQMIPRP | -0.14 |
| RRIRYRPPRLPRPRPRPSGEPRP | -0.187 |
| RRIRGRPPRLPRPRPRPHAQPRP | 0.868 |
| RRIRGRPPRLPRPRPRPFCRPRP | 0.326 |
| RRIRQRPPRLPRPRPRPSYMPRP | -0.301 |
| RRIRPRPPRLPRPRPRPVWPPRP | 0.341 |
| RRIRGRPPRLPRPRPRPHPIPRP | -0.0927 |
| RRIRLRPPRLPRPRPRPDLEPRP | 0.0992 |
| RRIRLRPPRLPRPRPRPASKPRP | -0.116 |
| RRIRQRPPRLPRPRPRPEHAPRP | 0.0519 |
| RRIRSRPPRLPRPRPRPSTWPRP | -0.301 |
| RRIRTRPPRLPRPRPRPDQCPRP | 0.0333 |
| RRIRARPPRLPRPRPRPQRVPRP | -0.188 |

| Sequence | shrunken log2 fold change |
| --- | --- |
| RRIRCRPPRLPRPRPRPDFTPRP | -0.0655 |
| RRIRSRPPRLPRPRPRPSDIPRP | -0.516 |
| RRIRFRPPRLPRPRPRPKHFPRP | -0.0499 |
| RRIRWRPPRLPRPRPRPKTDPRP | 0.204 |
| RRIRWRPPRLPRPRPRPLSEPRP | 0.104 |
| RRIRGRPPRLPRPRPRPIYNPRP | -0.185 |
| RRIRLRPPRLPRPRPRPWLAPRP | -0.218 |
| RRIRWRPPRLPRPRPRPDRWPRP | 0.827 |
| RRIRQRPPRLPRPRPRPTGEPRP | 0.0647 |
| RRIRWRPPRLPRPRPRPEQWPRP | 0.724 |
| RRIRNRPPRLPRPRPRPIHTPRP | -0.0125 |
| RRIRDRPPRLPRPRPRPGNAPRP | 0.126 |
| RRIRNRPPRLPRPRPRPRPCPRP | 0.0913 |
| RRIRERPPRLPRPRPRPFDTPRP | -0.267 |
| RRIRYRPPRLPRPRPRPRRDPRP | -0.17 |
| RRIRFRPPRLPRPRPRPHWHPRP | -0.444 |
| RRIRSRPPRLPRPRPRPGAFPRP | 0.0905 |
| RRIRERPPRLPRPRPRPDPSPRP | 0.0648 |
| RRIRFRPPRLPRPRPRPRSDPRP | 0.193 |
| RRIRSRPPRLPRPRPRPDTQPRP | -0.00981 |
| RRIRFRPPRLPRPRPRPMVQPRP | -0.106 |
| RRIRQRPPRLPRPRPRPVHCPRP | -0.166 |
| RRIRCRPPRLPRPRPRPVHYPRP | -0.0961 |
| RRIRHRPPRLPRPRPRPRCIPRP | -0.0991 |
| RRIRDRPPRLPRPRPRPKWQPRP | 0.276 |

| Sequence | shrunken log2 fold change |
| --- | --- |
| RRIRFRPPRLPRPRPRPMGQPRP | -0.0471 |
| RRIRERPPRLPRPRPRPTKLPRP | -0.0612 |
| RRIRTRPPRLPRPRPRPDIDPRP | 0.0151 |
| RRIRMRPPRLPRPRPRPPWEPRP | 0.601 |
| RRIRARPPRLPRPRPRPKGIPRP | -0.0515 |
| RRIRVRPPRLPRPRPRPREDPRP | 0.489 |
| RRIRWRPPRLPRPRPRPPVVPRP | 0.13 |
| RRIRKRPPRLPRPRPRPGENPRP | 0.318 |
| RRIRTRPPRLPRPRPRPAMMPRP | -0.109 |
| RRIRQRPPRLPRPRPRPYREPRP | -0.0135 |
| RRIRFRPPRLPRPRPRPTTFPRP | -0.388 |
| RRIRSRPPRLPRPRPRPVSIPRP | -0.319 |
| RRIRTRPPRLPRPRPRPFFPPRP | 0.191 |
| RRIRQRPPRLPRPRPRPIHRPRP | -0.0654 |
| RRIRNRPPRLPRPRPRPCVIPRP | -0.318 |
| RRIRQRPPRLPRPRPRPNSIPRP | -0.21 |
| RRIRCRPPRLPRPRPRPGLSPRP | -0.248 |
| RRIRKRPPRLPRPRPRPVCAPRP | 0.904 |
| RRIRKRPPRLPRPRPRPMSMPRP | 0.0472 |
| RRIRGRPPRLPRPRPRPYVCPRP | -0.00206 |
| RRIRARPPRLPRPRPRPWWVPRP | 0.066 |
| RRIRERPPRLPRPRPRPSRGPRP | 0.49 |
| RRIRHRPPRLPRPRPRPDCEPRP | -0.0807 |
| RRIRRRPPRLPRPRPRPLSDPRP | 0.144 |
| RRIRTRPPRLPRPRPRPNFKPRP | -0.131 |

Reference: the supplement of paper PMC9112550, “Optimization of the antimicrobial peptide Bac7 by deep mutational scanning” (BMC Biology, 2022)
